The record followed here is US20220072101A1, “HARNESSING INFLAMMATION TO TREAT NEURODEVELOPMENTAL DISORDERS” (President and Fellows of Harvard College, priority 2019, published 2022).

“Also recorded” adds a separate entry of the source. Counter-ions that a name gives are not always drawn.

Holding throughout (format): in vivo, mouse
One test has as its system MIA offspring. The test can be described thus: Three-chamber social approach assay in PBS and MIA offspring. The settings on record: for sociability phenotype after IL-17a into S1DZ: MIA offspring, IL-17a 50 ng/side bilaterally into S1DZ, 4 hours, no LPS. As for the experimental part:
Adult male mice were assayed for sociability using a three-chamber social approach assay. The arena was constructed of white acrylic (50 cm×35 cm×30 cm). Wire cups (Spectrum Diversified®) were placed in the back left and right corner of the arena beneath water-filled 1 L bottles (Nalgene®). On Day 0, mice were habituated to the arena for 10 min. Immediately following habituation, mice were singly housed. On Day 1 (Pre), mice were placed in the center of the arena and allowed to freely explore. Following 10 min, mice were confined to the center of the arena. An inanimate object (rubber stopper) or a male conspecific were placed beneath the wire cups. Placement of the inanimate object and social target were alternated. Mice were then allowed to freely explore the arena for 10 min. Interaction time was defined as time spent in the areas circumscribing the wire cups (<2 cm). Sociability was defined as interaction time with the social target divided by total interaction time and expressed as a percentage. For experiments involving LPS injections, mice were injected with LPS ([…], i.p., L2630, Sigma) on Day 2 (Test), four hours prior to testing. […]
Adult male mice were implanted with cannula into S1DZ and allowed to recover for >2 weeks prior to behavioral experiments. On Day 1 (Pre) mice were assayed for sociability. On Day 2 (Test), mice were anesthetized briefly using isoflurane and either vehicle or IL-17a (50 ng/side in 1 μl at a rate of 180 nl/min, 7956-ML/CF, R&D®) was administered bilaterally into S1DZ through 250 μm-projecting injector tips (PlasticsOne®). Four hours after vehicle or IL-17a administration, mice were assayed for sociability. Cannula placements were verified using histology.
(§1) Adult male mice were assayed for sociability using a three-chamber social approach assay. The arena was constructed of white acrylic (50 cm×35 cm×30 cm). Wire cups (Spectrum Diversified®) were placed in the back left and right corner of the arena beneath water-filled 1 L bottles (Nalgene®). On day 0, mice were habituated to the arena for 10 min. Immediately following habituation, mice were singly housed. On day 1 (Pre), mice were placed in the center of the arena and allowed to freely explore. Following 10 min, mice were confined to the center of the arena. An inanimate object (rubber stopper) or a male conspecific were placed beneath the wire cups. Placement of the inanimate object and social target were alternated. Mice were then allowed to freely explore the arena for 10 min. Interaction time was defined as time spent in the areas circumscribing the wire cups (<2 cm). Sociability was defined as interaction time with the social target divided by total interaction time and expressed as a percentage. For experiments involving LPS injections, mice were injected with either saline (Veh) or LPS ([…], i.p., L2630, Sigma) on day 2 (Test), four hours prior to testing. For the experiment assaying sociability 72 hrs following LPS injection, mice used for 4 hr LPS sociability experiments were tested for sociability again at 72 hrs.
Adult male Vgat-Cre MIA offspring were bilaterally injected with virus encoding the inhibitory DREADD receptor fused to mCherry into the vLPO. Following >3 weeks of recovery, mice were assayed on the three-chamber social approach assay outlined above. Baseline sociability was assayed on day 1 (Pre). On day 2 and day 3, mice were injected with either Saline (Veh) or CNO (1.5 mg/kg i.p., BML-NS105, Enzo Life Sciences®), two hours prior to initiation of behavior. Injection order was counterbalanced. Following behavioral experiments, post-mortem histology was used to confirm mCherry expression within the vLPO. For experiments assaying the effect of CNO and LPS injection in Vgat-Cre PBS and MIA offspring that have not undergone surgery, baseline sociability was assessed on day 1. On day 2 and 3 mice received counterbalanced injections of CNO or vehicle. On day 4, mice were injected with LPS. […]

Another test concerns IL-17a, IFNγ, IL-6, TNFα. The test can be described thus: ELISA of cytokines in plasma and brain lysate. The settings on record: LPS-injected MIA offspring; antibiotic by oral gavage. As for the experimental part: Mice were put under general anesthesia by intraperitoneal injection of Ketamine (100 mg/kg, i.p.) and xylazine (10 mg/kg, i.p.). Blood was collected by retro-orbital puncture, using clean heparinized microhematocrit capillary tubes (Fisher Scientific®). Once the tube was withdrawn, slight pressure was applied on the eyelid with gauze to prevent further bleeding. All blood samples were centrifuged at 15,000 g for 3 min at room temperature. For quantification of cytokines in brain lysate, samples were disrupted in cold lysis buffer with protease inhibitor cocktail for 60 seconds using the Micro-Homogenizer (VWR International) and centrifuged for 30 min at 15,000×g to remove insoluble precipitates. All samples were stored at −80° C. until further analysis. Plasma and brain lysate cytokines concentrations were measured using an ELISA kit (Biolgened™), following the manufacturer's instructions.
After four hours of vehicle or LPS administration, mice were anesthetized by intraperitoneal injection of fatal plus (100 mg/kg). All blood samples were centrifuged at 10,000 g for 10 min at 4 C. All samples were stored at −80° C. until further analysis. Cytokines concentrations in plasma were measured using an ELISA kit (IFN-γ; 430804, TNF-α; 430904, IL-6; 431304, IL-17a; 432504, Biolegend®), following the manufacturer's instructions.
A general note: An ELISA detects its analyte on a solid surface through an enzyme-linked reagent.

The subject of test [1] is segmented filamentous bacteria (SFB). The test can be described thus: SFB levels by 16S rRNA qPCR of fecal pellets and SEM of ileum after antibiotics. The conditions noted are these: Taconic-derived mice; vancomycin 2.5 mg/kg or metronidazole 10 mg/kg orally every two days. As for the experimental part:
For SFB-gavaging experiments, four fecal pellets of SFB mono-colonized mice were dissolved in 20 ml sterile PBS and filtered through a 100-μm cell strainer. 200 μl of fecal suspensions were gavaged via oral route into 8 to 9-week-old male cross-fostered mice. Control mice were gavaged with PBS. The SFB colonization was tested on day 7 following SFB-gavaging. For antibiotics treatments, Taconic-derived male mice were orally gavaged with vancomycin hydrochloride (Fisher) (2.5 mg/kg) or metronidazole (10 mg/kg) (Sigma Aldrich®) every two days, starting 21 days before behavioral test. Mouse fecal pellets were collected and stored at −80° C. before and after vancomycin and metronidazole treatments.
Bacterial genomic DNA was isolated from the fecal pellets of mice with phenol-chloroform extraction. qPCR was performed to quantify relative abundance of segmented filamentous bacteria (SFB). […] Data were analysed using Roche (Lightcylcler^R 96 SW1.1) Software and the relative quantification (fold) of SFB DNA was performed using the ΔΔCt method.
Terminal ileum tissues from mice (8-10 weeks old) were cut open and fixed with 2.5% glutaraldehyde in 0.1 M cacodylate buffer (pH 7.4) overnight and processed for standard scanning electron microscopy. All samples were analysed on a Hitachi S-4800 Type II Field Emission Scanning Electron Microscope™.
Background: In qPCR the cycle at which signal appears reflects the starting amount.

Test [2] deals with Cntnap2, Fmr1, and Shank3 mutant mice. The test can be described thus: Three-chamber social approach assay in monogenic mutant mice. The settings on record: Cntnap2 and Fmr1 (monogenic) mutant mice, IL-17a 50 ng/side bilaterally into S1DZ, 4 hours. How it is done:
All experiments were performed according to Guide for the Care and Use of Laboratory Animals and were approved by the National Institutes of Health and the Committee on Animal Care at Massachusetts Institute of Technology. C57BL/6 were purchased from Taconic Biosciences for generating PBS and MIA offspring. Vgat-Cre (028862) were purchased from Jackson Laboratories and inbred. For monogenic experiments, C57BL/6, Cntnap2 (017482), Fmr1 (003025), and Shank3 (017688) mice were purchased from Jackson Laboratories and inbred after colonizing with SFB from donor mice. IL-17Ra^fl/fl and IL-17RaKO were previously described^24,25. All mice were males aged 2-5 months, unless otherwise specified.
as §1, with “hrs. […]” for “hrs.”

As for `C[N+]1([O-])CCN(C2=Nc3cc(Cl)ccc3Nc3ccccc32)CC1` [CNO], the “sociability in MIA Vgat-Cre mice” value in the test on MIA offspring (Vgat-Cre MIA offspring without surgery, CNO 1.5 mg/kg i.p. or LPS) is “unaffected by CNO treatment”.
Regarding `CN[C@H](CC(C)C)C(=O)N[C@H]1C(=O)N[C@@H](CC(N)=O)C(=O)N[C@H]2C(=O)N[C@H]3C(=O)N[C@H](C(=O)N[C@H](C(=O)O)c4cc(O)cc(O)c4-c4cc3ccc4O)[C@H](O)c3ccc(c(Cl)c3)Oc3cc2cc(c3O[C@@H]2O[C@H](CO)[C@@H](O)[C@H](O)[C@H]2O[C@H]2C[C@](C)(N)[C@H](O)[C@H](C)O2)Oc2ccc(cc2Cl)[C@H]1O` [vancomycin, vancomycin hydrochloride], the “LPS-induced reversal of the sociability phenotype after antibiotic pretreatment” value with MIA offspring (LPS-injected MIA offspring, antibiotic by oral gavage every two days from 21 days before test) is reported as “prevented the reversal of the sociability phenotype”. In addition, the “LPS-induced increase in plasma and brain IL-17a and plasma IFNγ after antibiotic pretreatment” value in the test on IL-17a, IFNγ, IL-6, TNFα was “suppressed the systemic increase in plasma and brain levels of IL-17a as well as the plasma levels of IFNγ”. The “intestinal colonization by SFB (qPCR of fecal samples)” value in test [1] is listed as “severely reduced”.

B1: recombinant IL-17a: recombinant IL-17a protein (7956-ML/CF, R&D) administered bilaterally into S1DZ (protein)
chain: AAIIPQSSACPNTEAKDFLQNVKVNLKVFNSLGAKVSSRRPSDYLNRSTSPWTLHRNEDPDRYPSVIWEAQCRHQRCVNAEGKLDHHMNSVLIQQEILVLKREPESCPFTFRVEKMLVGVGCTCVASIVRQAA
Turning to B1, the “sociability phenotype after IL-17a into S1DZ” value is “sufficient to promote sociability in monogenic mutant mice as well as in MIA offspring; also recorded: sufficient to rescue the sociability phenotypes of not only MIA offspring” in the test on MIA offspring; “sufficient to rescue sociability deficits in MIA offspring; also recorded: rescues sociability deficits in both MIA offspring and monogenic mutant mice” in the test on MIA offspring (listed as IL-17a); “rescued sociability deficits” with MIA offspring (listed as exogenous IL-17a); “sufficient to rescue the sociability phenotype of MIA offspring” in the test with MIA offspring (listed as recombinant IL-17a protein); “sufficient to promote sociability in monogenic mutant mice” in test [2]; “rescues sociability deficits in both MIA offspring and monogenic mutant mice” in test [2] (listed as IL-17a).
